Measurements taken from IntAct's records for PubMed 24704786.

B1: Interferon alpha/beta receptor 1 (Homo sapiens), P17181-1 (parent)
chain: MMVVLLGATTLVLVAVAPWVLSAAAGGKNLKSPQKVEVDIIDDNFILRWNRSDESVGNVTFSFDYQKTGMDNWIKLSGCQNITSTKCNFSSLKLNVYEEIKLRIRAEKENTSSWYEVDSFTPFRKAQIGPPEVHLEAEDKAIVIHISPGTKDSVMWALDGLSFTYSLVIWKNSSGVEERIENIYSRHKIYKLSPETTYCLKVKAALLTSWKIGVYSPVHCIKTTVENELPPPENIEVSVQNQNYVLKWDYTYANMTFQVQWLHAFLKRNPGNHLYKWKQIPDCENVKTTQCVFPQNVFQKGIYLLRVQASDGNNTSFWSEEIKFDTEIQAFLLPPVFNIRSLSDSFHIYIGAPKQSGNTPVIQDYPLIYEIIFWENTSNAERKIIEKKTDVTVPNLKPLTVYCVKARAHTMDEKLNKSSVFSDAVCEKTKPGNTSKIWLIVGICIALFALPFVIYAAKVFLRCINYVFFPSLKPSSSIDEYFSEQPLKNLLLSTSEEQIEKCFIIENISTIATVEETNQTDEDHKKYSSQTSQDSGNYSNEDESESKTSEELQQDFV

Variants of: B1
Conditions: with tyk2_human TYK2, P29597
Sequence of tyk2_human TYK2, P29597 (P29597 whole entry): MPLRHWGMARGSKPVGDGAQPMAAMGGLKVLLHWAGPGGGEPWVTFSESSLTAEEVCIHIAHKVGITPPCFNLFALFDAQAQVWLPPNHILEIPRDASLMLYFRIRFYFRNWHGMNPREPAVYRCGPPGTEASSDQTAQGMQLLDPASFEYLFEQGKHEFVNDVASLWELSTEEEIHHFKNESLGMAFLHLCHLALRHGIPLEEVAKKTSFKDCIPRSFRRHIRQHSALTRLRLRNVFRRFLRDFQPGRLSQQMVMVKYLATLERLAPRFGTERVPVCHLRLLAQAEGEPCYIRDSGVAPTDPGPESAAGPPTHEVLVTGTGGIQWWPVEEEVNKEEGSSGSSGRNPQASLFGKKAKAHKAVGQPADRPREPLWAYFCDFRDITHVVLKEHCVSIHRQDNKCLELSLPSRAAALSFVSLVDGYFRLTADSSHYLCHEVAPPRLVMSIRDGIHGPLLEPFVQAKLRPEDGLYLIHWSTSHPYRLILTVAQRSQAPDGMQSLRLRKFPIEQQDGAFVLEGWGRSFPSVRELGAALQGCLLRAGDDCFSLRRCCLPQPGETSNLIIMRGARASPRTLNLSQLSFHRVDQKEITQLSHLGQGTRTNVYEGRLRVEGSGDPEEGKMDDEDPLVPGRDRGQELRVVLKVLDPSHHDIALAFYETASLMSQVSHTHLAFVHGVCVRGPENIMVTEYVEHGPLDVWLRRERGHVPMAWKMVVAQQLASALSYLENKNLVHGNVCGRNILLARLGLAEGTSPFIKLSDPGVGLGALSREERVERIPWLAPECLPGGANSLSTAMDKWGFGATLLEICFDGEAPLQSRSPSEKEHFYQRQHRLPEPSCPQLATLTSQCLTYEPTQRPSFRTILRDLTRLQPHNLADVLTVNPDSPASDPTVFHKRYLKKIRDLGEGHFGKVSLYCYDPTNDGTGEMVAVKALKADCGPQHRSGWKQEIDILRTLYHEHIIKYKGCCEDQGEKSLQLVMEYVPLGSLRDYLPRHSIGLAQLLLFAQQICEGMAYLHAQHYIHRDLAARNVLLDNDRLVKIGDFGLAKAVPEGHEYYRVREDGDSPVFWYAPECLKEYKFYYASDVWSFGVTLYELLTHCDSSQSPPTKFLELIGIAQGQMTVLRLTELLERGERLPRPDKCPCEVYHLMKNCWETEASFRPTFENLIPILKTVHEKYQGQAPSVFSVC

| Variant | effect of a mutation on the interaction |
| --- | --- |
| E497A | disrupting interaction strength |
